Assay: yeast display, Sf9 membrane polyspecificity reagent, FACS + sequencing; frameworks hold sequencing errors
Method in brief: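 Sorting gates, low and high (top ~1%), were placed on anti-HA fluorescence to track expression and on streptavidin fluorescence to track reagent binding. A clone's polyreactivity label is taken from the gate it came out of. The reagent was 10% biotinylated, detergent-solubilized Sf9 membrane, applied for 1 hour at 4 °C to galactose-induced yeast display cells.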
For “QVQLVESGGGLVQAGGSLRLSCADSGLTFGRNAMGWYRHAPGKERELVAAITFNGGSTYYADSVKGRFTISRDNAKNTVYLQMNSLKPEDTAVYYCSGRLWRRSRFDYWGQGTQVTVSS”, the “polyreactivity (PSR sort gate)” value was “high polyreactivity”. For “QVQLVESGGGLVQAGGSLRLSCADSGLTFIYYAMGWYRQAHGKERELVAAISSSGGRTYYADSVKGRFTISRDNAKNTVYLQMNSLKPEDTAVYYCATRYWTQSSSFDYWGQGTQVTVSS”, the “polyreactivity (PSR sort gate)” value was “high polyreactivity”. In the case of “QVQLVESGGGLVQAGGSLRLSCADSGLTFWVYAMGWYRQAPGKERELVAAISSGGSTNYADSVKGRFTISRDNAKNTVYVQMNSLKPEDTAVYYCAAEWVYWQDELWDSPGLVEFDYWGQGTQVTVSS”, the “polyreactivity (PSR sort gate)” value is reported as “low polyreactivity”. For “QVQLVESGGGLVQAGGSLRLSCADSGNIFSTYAMGWYRQEPGKERELVASISENGGSTYYADSVKGRFTISRDNAKNTVYLQMNCLKPEDTAVYYCAIGPLYSLFFQHDAPYRYGYWGQGTQVTVSS”, the “polyreactivity (PSR sort gate)” value was “low polyreactivity”. In the case of “QVQLVESGGGLVQAGGSLRLSCADSGRIFGYYTMGWSRQAPGKERELVAAITSSGSSTYYADSVKGRFTISRDNAKNTVYLQMNSLKPEDTAVYYCNARAYWRNEYWGQGTQVTVSS”, the “polyreactivity (PSR sort gate)” value is reported as “high polyreactivity”. For “QVQLVESGGGLVQAGGSLRLSCADSGRIFQPNVMGWYRQAPGKERELVAAIRSGSSTYYADSVKGRFTISRDNAKNTVYLQMNSLKPEDTAVYYCATRRAGRGYDYWGQGTQVTVSS”, the “polyreactivity (PSR sort gate)” value was “high polyreactivity”. With “QVQLVESGGGLVQAGGSLRLSCADSGRIFRGNTMGWYRQAPGKERELVATINGRGGSTYYADSVKGRFTISRDNAKNTLYLQMNSLKPEDTAVYYCAARARTTRSATYDYWGQGTQVTVSS” the “polyreactivity (PSR sort gate)” value was “high polyreactivity”. For “QVQLVESGGGLVQAGGSLRLSCADSGRIFTSYVMGWYRPAPGQERELVAAITRSGGSTYYADSVKGRFTNSRDNAKNTVYLQMNSLKPEDTAVYYCIALTRRQKGGEGGGYWGQGTQVTVSS”, the “polyreactivity (PSR sort gate)” value was “high polyreactivity”. In the case of “QVQLVESGGGLVQAGGSLRLSCADSGRIFYRYAMGWYRQAPGKERELVAAITNSGGRTYYADSVKGRFTISRDNAKNTVYLQMNSVKPEDSAVYYCNAVKTSEYDYWGQGTQVTVSS”, the “polyreactivity (PSR sort gate)” value is reported as “high polyreactivity”. With “QVQLVESGGGLVQAGGSLRLSCADSGRIFYYYTMGWYRQAPGKERELVARINSSGSTNLRRLCEGALHNFTRQCEEYRLFTDEQPETGRYRVYYCNADTKRSSREYDYWGQGTQVTVSS” the “polyreactivity (PSR sort gate)” value was “low polyreactivity”. For “QVQLVESGGGLVQAGGSLRLSCADSGRILIGYTRGWYRQAPGKERELVARINYSGGSTYYADSVKGRFTISRDNAKNTVYLQMNSLKPEDTAVYYCAADVRRGYYTWPPRRVYYWGQGTQVTVSS”, the “polyreactivity (PSR sort gate)” value was “high polyreactivity”. In the case of “QVQLVESGGGLVQAGGSLRLSCADSGRTFGVYTMGWYRQAPGKERELVAAISGSGGSTYYADSVKGRFTISRDNAKNTVYLQMNSLKPEDTAVYYCNADQNVDVFYRYRLYDSWGQGTQVTVSS”, the “polyreactivity (PSR sort gate)” value is reported as “high polyreactivity”. With “QVQLVESGGGLVQAGGSLRLSCADSGRTFSYNLMGWYSQAPGKESEVVAAISRRGGSTYYADSVKGRFTISRDNAKNTVYLQMNSLKPEDTAVYYCNAVSPSPGGGYWGQGSQVTVSS” the “polyreactivity (PSR sort gate)” value was “high polyreactivity”. For “QVQLVESGGGLVQAGGSLRLSCADSGRTFVTTAMGWYRQAPGKERELVAAIDGGGDRTYYADTVKVRFTISRDYAKYTVYLQMNSLKPEDSAVYYCNKDRGTLYGDMDSWGQGTQVTVSS”, the “polyreactivity (PSR sort gate)” value was “low polyreactivity”. In the case of “QVQLVESGGGLVQAGGSLRLSCADSGRTFYPNAMGWYRQAPGKERELVARIRQSGTSTYYADSVKGRFTISRDNAKNTVYLQMNSLKPEDTAVYYCAARYAVGYPPYRYYYWGQGTQVTVSS”, the “polyreactivity (PSR sort gate)” value is reported as “high polyreactivity”. With “QVQLVESGGGLVQAGGSLRLSCADSGRTFYPYVMGWYRQAPGKERELVADISWSGGRTYYADSVKGRFTISRDNAKNTVYLQMYSLKPEDTAVYYCCAGYRRRYNYWGQGTQVTVSS” the “polyreactivity (PSR sort gate)” value was “high polyreactivity”. For “QVQLVESGGGLVQAGGSLRLSCADSGRTFYRNAMGWYRQAPGKERELVAAITWSAGSTYYADSVKGRFTISRDNAKNTVYLQMNSLKPEDSAVYYCAKYPSKSYVPGDYWGQGTQVTVSS”, the “polyreactivity (PSR sort gate)” value was “low polyreactivity”. With “QVQLVESGGGLVQAGGSLRLSCADSGRTLGYYAKGWYRQAPGKEREVVAAITSGGRTNYADSVKGRFTISRDNAKNTVYLQMNSLKPEDTAVYYCAAARYLSGGYEKYDYWGQGTQVTVSS” the “polyreactivity (PSR sort gate)” value was “low polyreactivity”. In the case of “QVQLVESGGGLVQAGGSLRLSCADSGSIFDIYAMGWYRQAPGKERELVADISWSGGSTYYADSVKGRFTISRDNAKNTVYLQMNSLKPEDTAVYYCAADSSRRIGEDYWGQGTQVTVSS”, the “polyreactivity (PSR sort gate)” value is reported as “low polyreactivity”. In the case of “QVQLVESGGGLVQAGGSLRLSCADSGSIFGSYATGWYRQAPGKERELVAAITYSGTSTYYADSVKGRFTISRDTAKNTVYLQMNRLKPEDTAVYYCAKRHWFQYRRPDLGRFDYWGQGTQVTVSS”, the “polyreactivity (PSR sort gate)” value is reported as “high polyreactivity”. In the case of “QVQLVESGGGLVQAGGSLRLSCADSGSIFRIYAMGWYSQAPGKERELVAAITGRGGSTYYADSVKGRFTISRDNAKNTVYLQMNSLKPEDTAVYYCAAEERYAYRYDYWGQGTQVTVSS”, the “polyreactivity (PSR sort gate)” value is reported as “high polyreactivity”. For “QVQLVESGGGLVQAGGSLRLSCADSGSNFRTYVMGWYRQAPGNERDMVAAITNGISTNYADSVKGRFTISRDNAKNSVYLQMISMKPEDTAVYYCAAGFRSTYYTFRFGYWGQGTQVTVST”, the “polyreactivity (PSR sort gate)” value was “high polyreactivity”. With “QVQLVESGGGLVQAGGSLRLSCADSGSTFAGNAMGWYRQAPGKERELVAAIVSSTGSTYYADSVKGRFTISRDNAKNTVYLQMNSLKPEDTAVYYCNKTSFLVKLDYWGQGTQVTVSS” the “polyreactivity (PSR sort gate)” value was “low polyreactivity”. For “QVQLVESGGGLVQAGGSLRLSCADSGSTFGKNAMGWYRQAPGKDRELVAAITRRGVSTNYADSEKGRFTISRDNAKNTVYLQMNSLKPEDTAVYYCARGSELGYYAWVYYLGQGTQVTVSS”, the “polyreactivity (PSR sort gate)” value was “high polyreactivity”. For “QVQLVESGGGLVQAGGSLRLSCADSGSTFRRNVMGWYRQAPGKERELVASIRSGGTTNYADSVKGRFTISRDNAKNTVYLQMNSLKPEDTAVYYCAAARSRGYYRASAVVLYGYWGQGTQVTVSS”, the “polyreactivity (PSR sort gate)” value was “high polyreactivity”. For “QVQLVESGGGLVQAGGSLRLSCADSGSTFRYYVMGWYRQAPGKERELVARITSAASTNYADSVKGRFTISRDNAKNTVYLQMNSLKPEDTAVYYCAARKYGSRYRLKYDYWGQGTQVTVSS”, the “polyreactivity (PSR sort gate)” value was “high polyreactivity”. With “QVQLVESGGGLVQAGGSLRLSCADSGSTFVNYAMGWYRQAPGKERELVAAISSTGGSTYYADSVKGRFTISRDNAKNTVYLQMNSLKPEDTAVYYCAAYRYFKMGYWGQGTQVTVSS” the “polyreactivity (PSR sort gate)” value was “high polyreactivity”. In the case of “QVQLVESGGGLVQAGGSLRLSCADSGSTFWPYAMGWYRQAPGKESEVVAAISSSGGSTYYADSVQGRFTISRDNAKNTVYLQMNSLKPEDTAVYYCNKDYHRPFGGGSKGDYWGQRTQVTVSS”, the “polyreactivity (PSR sort gate)” value is reported as “low polyreactivity”. With “QVQLVESGGGLVQAGGSLRLSCADSGTTVIFNAMGWYRQAPGKERELVGAISWRLGRTYYAYSVKGRFTISRDNAKNTVYLQMNSLTPEDTAVYYCARDYSRHKGDYWGQGTQVTVSS” the “polyreactivity (PSR sort gate)” value was “low polyreactivity”. For “QVQLVESGGGLVQAGGSLRLSCADSGYIFEVYAMGWYRPAPGKERELVAAIDYSDGTTYYADSVKGRFTISRDNAKNTVYLQMNSLKPEDTAVYYCAADFPGQHYDYWGQGTQVTVSS”, the “polyreactivity (PSR sort gate)” value was “low polyreactivity”. With “QVQLVESGGGLVQAGGSLRLSCADSVFIFYLNAMGWYRQAPRKERELVATITNRGGSTYFADSVKGRFTISRDNAKNTVYLQMNSLKPEDTAVYYCAARTRERYSKPYFYRRFGYWGQGTQVTVSS” the “polyreactivity (PSR sort gate)” value was “low polyreactivity”.

Source: the nanobody polyreactivity screen of Harvey et al. (2022)
